The results in this text go back to US20250263467A1.

Where only a bound is given, the exact number is not on record here.

This assay addresses SARS-CoV-2 Spike protein on pseudotyped virus (SARS-CoV-2 (Wuhan-Hu-1)) (UniProt P0DTC2). The experiment in a line: cell-based or functional assay.

S309 rIgG1-LS (antibody) had a maximum neutralization, VSV pseudotype, 293T ACE2 cells of 34%; a maximum neutralization, VSV pseudotype, A549-ACE2-TMPRSS2 clone 10 cells of 42%; a maximum neutralization, VSV pseudotype, Huh7 cells of 78%; a maximum neutralization, VSV pseudotype, MRC5-ACE2-TMPRSS2 cells of 45%. Also, the maximum neutralization, VSV pseudotype, Vero E6-TMPRSS2 cells stood at 96% and the maximum neutralization, VSV pseudotype, Vero E6 cells was > 99%.
sotrovimab (antibody) showed an EC50, neutralization of pseudotyped virus of 24.1 ng/mL.
